# Positions count from the first letter of the chain named. Starred links: 1 amine or outer side, 2 acyl side, 3 side chain; linkers in the order of their positions; H or OH if unused. Non-standard residues stand in square brackets, D forms with d. Groups on a side chain read outwards from the residue. No end group written: not given here. *: point of attachment. C18 diacid = O=C(O)CCCCCCCCCCCCCCCCC(=O)*; γGlu = O=C(O)[C@H](CCC(=O)[*:2])N[*:1]; αMe4Pal = C[C@](N)(Cc1ccncc1)C(=O)O; 4Pal = N[C@@H](Cc1ccncc1)C(=O)O; αMeL = CC(C)C[C@](C)(N)C(=O)O; Orn = NCCC[C@H](N)C(=O)O; Dab = NCC[C@H](N)C(=O)O; Aib = CC(C)(N)C(=O)O
# T1: human GIP receptor (human) (UniProt P48546)
# T1 sequence (looked up): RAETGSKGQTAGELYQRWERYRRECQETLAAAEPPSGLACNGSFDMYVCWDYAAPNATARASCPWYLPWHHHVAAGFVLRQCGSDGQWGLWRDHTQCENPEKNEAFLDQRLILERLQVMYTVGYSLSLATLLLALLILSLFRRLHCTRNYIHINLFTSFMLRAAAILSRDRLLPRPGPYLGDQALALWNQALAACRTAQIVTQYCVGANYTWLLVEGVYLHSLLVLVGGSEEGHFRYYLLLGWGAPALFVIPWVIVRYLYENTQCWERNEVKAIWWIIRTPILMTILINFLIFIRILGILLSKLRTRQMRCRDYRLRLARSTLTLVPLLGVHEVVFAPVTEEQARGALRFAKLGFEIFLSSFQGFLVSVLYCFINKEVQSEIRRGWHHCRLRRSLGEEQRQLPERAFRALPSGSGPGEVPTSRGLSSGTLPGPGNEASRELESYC
# B1: Example 1037 (peptide)
# chain: YXQGTFTSDXSQXLDKKAQXAFIEYLLAGGPSSGAPPPSGSEE
# modifications: AEEA-γGlu-C18 diacid on Lys; non-natural residues; amide; synthetic construct; SITE 2: note = 2-Aminoisobutyric Acid; SITE 10: note = 3-(4-Pyridyl)-L-alanine; SITE 13: note = alpha-methyl-leucine; SITE 17: note = Lysine is chemically modified through conjugation of the epsilon-amino group of the Lysine side chain with (2-[2-(2-Amino-ethoxy)-ethoxy]-acetyl)
# B2: Example 1038 (peptide)
# chain: YXQGTFTSDFSQXLDXKAQXAFIEYLLEAGPSSGAPPPSGSEEE
# modifications: synthetic construct; SITE 2: note = 2-Aminoisobutyric Acid; SITE 13: note = alpha-methyl-leucine; SITE 16: note = L-ornithine; SITE 17: note = Lysine is chemically modified through conjugation of the epsilon-amino group of the Lysine side chain with (2-[2-(2-Amino-ethoxy)-ethoxy]-acetyl)-(gamma-Glu)
# B3: Example 1039 (peptide)
# chain: B2 chain
# modifications: not fully specified; synthetic construct; SITE 2: note = 2-Aminoisobutyric Acid; SITE 13: note = alpha-methyl-leucine; SITE 16: note = L-ornithine; SITE 17: note = Lysine is chemically modified through conjugation of the epsilon-amino group of the Lysine side chain with (gamma-Glu)2-CO-(CH2)16-CO2H; SITE 20: note = 2-Am
# B4: Example 1040 (peptide)
# chain: B2 chain with Y25X
# modifications: Aib, αMeL, Orn, Me4Pal; acylated K; C-terminal amide; synthetic construct; SITE 2: note = 2-Aminoisobutyric Acid; SITE 13: note = alpha-methyl-leucine; SITE 16: note = L-ornithine; SITE 17: note = Lysine is chemically modified through conjugation of the epsilon-amino group of the Lysine side chain with (gamma-Glu)2-CO-(CH2)16-CO2H; SITE 20: note = 2-Am
# B5: Example 1041 (peptide)
# chain: B1 chain with K16X, Y25X, L27I, A28E
# modifications: Aib, 4Pal, Orn, Me4Pal, αMeY; acylated lysine; amide; synthetic construct; SITE 2: note = 2-Aminoisobutyric Acid; SITE 10: note = 3-(4-Pyridyl)-L-alanine; SITE 13: note = alpha-methyl-leucine; SITE 16: note = L-ornithine; SITE 17: note = Lysine is chemically modified through conjugation of the epsilon-amino group of the Lysine side chain with (2-[2-(2-
# B6: Example 1042 (peptide)
# chain: B1 chain with K16X, Y25X, L27I, A28E
# modifications: not fully specified; non-natural residues; lipidated Lys; C-terminal amide; synthetic construct; SITE 2: note = 2-Aminoisobutyric Acid; SITE 10: note = 3-(4-Pyridyl)-L-alanine; SITE 13: note = alpha-methyl-leucine; SITE 16: note = L-ornithine; SITE 17: note = Lysine is chemically modified through conjugation of the epsilon-amino group of the Lysine side chain with (2-[2-(2-
# B7: Example 1043 (peptide)
# chain: B1 chain with K16X, Y25X, L27I, A28E
# modifications: non-natural residues, C18 diacid-(γGlu)2 acyl on K, C-terminal amide; synthetic construct; SITE 2: note = 2-Aminoisobutyric Acid; SITE 10: note = 3-(4-Pyridyl)-L-alanine; SITE 13: note = alpha-methyl-leucine; SITE 16: note = L-ornithine; SITE 17: note = Lysine is chemically modified through conjugation of the epsilon-amino group of the Lysine side chain with (gamma-Gl)
# B8: Example 1044 (peptide)
# chain: B1 chain with K16X, Y25X, L27I, A28E
# modifications: non-natural residues, (γGlu)2-C18 diacid lysine acylation, C-terminal amide; synthetic construct; SITE 2: note = 2-Aminoisobutyric Acid; SITE 10: note = 3-(4-Pyridyl)-L-alanine; SITE 13: note = alpha-methyl-leucine; SITE 16: note = L-ornithine; SITE 17: note = Lysine is chemically modified through conjugation of the epsilon-amino group of the Lysine side chain with (gamma-Gl)
# B9: Example 1045 (peptide)
# chain: B1 chain with K16X, A21Q, Y25X, L27I, A28E
# modifications: non-natural residues; lipidated Lys AEEA-γGlu-C18 diacid; C-term amide; synthetic construct; SITE 2: note = 2-Aminoisobutyric Acid; SITE 10: note = 3-(4-Pyridyl)-L-alanine; SITE 13: note = alpha-methyl-leucine; SITE 16: note = L-ornithine; SITE 17: note = Lysine is chemically modified through conjugation of the epsilon-amino group of the Lysine side chain with (2-[2-(2-
# B10: Example 1046 (peptide)
# chain: B1 chain with K16X, A21Q, Y25X, L27I, A28E
# modifications: non-natural residues, C-terminal amide, acylated Lys with fatty diacid; synthetic construct; SITE 2: note = 2-Aminoisobutyric Acid; SITE 10: note = 3-(4-Pyridyl)-L-alanine; SITE 13: note = alpha-methyl-leucine; SITE 16: note = L-ornithine; SITE 17: note = Lysine is chemically modified through conjugation of the epsilon-amino group of the Lysine side chain with (gamma-Gl)
# B11: Example 1047 (peptide)
# chain: B1 chain with X10F, Q12X, A28E, S39G
# modifications: non-natural residues, C-terminal amide, acylated Lys with fatty diacid; synthetic construct; SITE 2: note = 2-Aminoisobutyric Acid; SITE 12: note = L-ornithine; SITE 13: note = alpha-methyl-leucine; SITE 17: note = Lysine is chemically modified through conjugation of the epsilon-amino group of the Lysine side chain with (gamma-Glu)2-CO-(CH2)16-CO2H; SITE 20: note = 2-Am
# B12: Example 1048 (peptide)
# chain: B1 chain with X10F, Q12X, K16X, A28E, S39G
# modifications: non-natural residues (Aib, Orn, αMeL); lipidated Lys; C-terminal amide; synthetic construct; SITE 2: note = 2-Aminoisobutyric Acid; SITE 12: note = L-ornithine; SITE 13: note = alpha-methyl-leucine; SITE 16: note = L-ornithine; SITE 17: note = Lysine is chemically modified through conjugation of the epsilon-amino group of the Lysine side chain with (gamma-Glu)2-CO-(CH2)
# B13: Example 1049 (peptide)
# chain: YXQGTFTSDFSXXLDXKAQXAFIEXLLEGGPSSGAPPPGGSEE
# modifications: Aib, Orn, αMeL, αMeY; acylated Lys; C-terminal amide; synthetic construct; SITE 2: note = 2-Aminoisobutyric Acid; SITE 12: note = L-ornithine; SITE 13: note = alpha-methyl-leucine; SITE 16: note = L-ornithine; SITE 17: note = Lysine is chemically modified through conjugation of the epsilon-amino group of the Lysine side chain with (gamma-Glu)2-CO-(CH2)
# B14: Example 1050 (peptide)
# chain: B13 chain
# modifications: non-natural residues; Lys acylated C18 diacid via γGlu2; C-term amide; synthetic construct; SITE 2: note = 2-Aminoisobutyric Acid; SITE 12: note = L-ornithine; SITE 13: note = alpha-methyl-leucine; SITE 16: note = L-ornithine; SITE 17: note = Lysine is chemically modified through conjugation of the epsilon-amino group of the Lysine side chain with (gamma-Glu)2-CO-(CH2)
# B15: Example 1051 (peptide)
# chain: B1 chain with X10F, Q12X, S39E
# modifications: Aib, Orn, αMeL; acylated Lys; C-terminal amide; synthetic construct; SITE 2: note = 2-Aminoisobutyric Acid; SITE 12: note = L-ornithine; SITE 13: note = alpha-methyl-leucine; SITE 17: note = Lysine is chemically modified through conjugation of the epsilon-amino group of the Lysine side chain with (gamma-Glu)2-CO-(CH2)16-CO2H; SITE 20: note = 2-Am
# B16: Example 1053 (peptide)
# chain: B13 chain with E28A, G39E
# modifications: non-natural residues, (γGlu)2-C18 diacid lysine acylation, C-terminal amide; synthetic construct; SITE 2: note = 2-Aminoisobutyric Acid; SITE 12: note = L-ornithine; SITE 13: note = alpha-methyl-leucine; SITE 16: note = L-ornithine; SITE 17: note = Lysine is chemically modified through conjugation of the epsilon-amino group of the Lysine side chain with (gamma-Glu)2-CO-(CH2)
# B17: Example 1054 (peptide)
# chain: Y[Aib]QGTFTSD[4Pal]S[Dab][αMeL]LD[Orn]K([γGlu-γGlu-C18 diacid])AQ[Aib]AFIE[αMe4Pal]LLAGGPSSGAPPPEGSEE-NH2
# Target: hGLP-1R (Homo sapiens, UniProt P43220)
# Assay: cell-based or functional assay
# Sequence of hGLP-1R (P43220 24-463): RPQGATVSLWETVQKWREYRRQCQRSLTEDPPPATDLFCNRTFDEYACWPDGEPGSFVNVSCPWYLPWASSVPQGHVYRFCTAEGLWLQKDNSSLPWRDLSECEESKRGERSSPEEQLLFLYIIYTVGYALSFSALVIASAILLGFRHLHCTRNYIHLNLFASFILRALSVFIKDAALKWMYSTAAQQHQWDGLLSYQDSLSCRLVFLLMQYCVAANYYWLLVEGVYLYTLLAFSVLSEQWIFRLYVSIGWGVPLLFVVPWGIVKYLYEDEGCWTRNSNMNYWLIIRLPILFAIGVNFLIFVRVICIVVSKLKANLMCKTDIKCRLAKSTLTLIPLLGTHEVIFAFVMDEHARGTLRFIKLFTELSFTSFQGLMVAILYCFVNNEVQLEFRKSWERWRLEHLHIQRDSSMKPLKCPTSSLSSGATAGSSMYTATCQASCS
Binder,"cAMP Rel EC50, nM (1% HSA)",Relative cAMP EC50,cAMP Rel EC50 (1% HSA)
B1,625 nM,–,–
B2,349 nM,1.45 nM,–
B3,413 nM,1.65 nM,–
B4,322 nM,–,–
B5,316 nM,–,–
B6,642 nM,–,–
B7,268 nM,–,–
B8,1110 nM,–,–
B9,276 nM,–,–
B10,528 nM,–,–
B11,1960 nM,16.2 nM,–
B12,1900 nM,6.23 nM,–
B13,–,2.23 nM,780 nM
B14,–,7.65 nM,1240 nM
B15,–,8.3 nM,–
B16,–,6.2 nM,–
B17,–,9.53 nM,–

# Target: T1, human GIP receptor (human)
# Assay: cell-based or functional assay
Binder,"cAMP Rel EC50, nM (1% HSA)",Relative cAMP EC50,cAMP Rel EC50 (1% HSA)
B1,13.7 nM,–,–
B2,29.8 nM,0.134 nM,–
B3,26.8 nM,0.118 nM,–
B4,20.8 nM,–,–
B5,75.7 nM,–,–
B6,84.8 nM,–,–
B7,44.9 nM,–,–
B8,88.7 nM,–,–
B9,107 nM,–,–
B10,85 nM,–,–
B11,60.8 nM,0.28 nM,–
B12,108 nM,0.356 nM,–
B13,–,0.24 nM,56.2 nM
B14,–,0.152 nM,68.5 nM
B15,–,0.172 nM,32.6 nM
B16,–,0.123 nM,19.3 nM
B17,–,0.797 nM,79.4 nM

# Target: human glucagon receptor (human) (UniProt P47871)
# Assay: cell-based or functional assay
# Sequence of human glucagon receptor (human) (P47871 26-477): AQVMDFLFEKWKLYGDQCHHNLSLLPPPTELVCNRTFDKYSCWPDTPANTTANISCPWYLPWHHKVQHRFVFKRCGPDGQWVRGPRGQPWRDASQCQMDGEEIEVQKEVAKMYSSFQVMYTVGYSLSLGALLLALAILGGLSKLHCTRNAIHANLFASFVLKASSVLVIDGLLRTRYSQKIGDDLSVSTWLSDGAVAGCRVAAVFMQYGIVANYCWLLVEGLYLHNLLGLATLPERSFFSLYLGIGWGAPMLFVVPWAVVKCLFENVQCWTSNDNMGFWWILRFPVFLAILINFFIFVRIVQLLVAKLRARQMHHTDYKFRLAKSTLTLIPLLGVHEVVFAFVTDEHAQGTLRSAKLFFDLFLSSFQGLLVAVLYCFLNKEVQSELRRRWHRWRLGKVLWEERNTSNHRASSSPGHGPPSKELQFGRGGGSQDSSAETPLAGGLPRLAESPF
Binder,"cAMP Rel EC50, nM (1% HSA)",Relative cAMP EC50,cAMP Rel EC50 (1% HSA)
B1,291 nM,–,–
B2,1300 nM,5.93 nM,–
B3,2020 nM,7.46 nM,–
B4,2020 nM,–,–
B5,1720 nM,–,–
B6,1890 nM,–,–
B7,2240 nM,–,–
B8,2410 nM,–,–
B9,1540 nM,–,–
B10,1680 nM,–,–
B11,1510 nM,8.18 nM,–
B12,1930 nM,6.9 nM,–
B13,–,6.33 nM,1280 nM
B14,–,6.8 nM,2040 nM
B15,–,10.3 nM,1800 nM
B16,–,10.4 nM,3470 nM
B17,–,8.06 nM,1630 nM
